Measured values as given in the Immune Epitope Database (IEDB).

Key:
HLA-B*15:42 = assay: IEDB peptide-MHC binding, purified MHC/competitive/fluorescence; filed as Kd, often an IC50 or EC50 that approximates it; ≥ and ≤ were set here for values at or beyond the usual limits of such assays
HLA-B*40:01 [1] = assay: as above; conditions: source organism: Salmonella enterica subsp. enterica serovar Typhi
HLA-B*45:06 = assay: as above
HLA-B*83:01 = assay: as above
HLA-C*04:01 [2] = assay: as above; conditions: source organism: Salmonella enterica subsp. enterica serovar Typhi
HLA-C*06:02 = assay: IEDB peptide-MHC binding, purified MHC/direct/fluorescence; filed as Kd, often an IC50 or EC50 that approximates it; ≥ and ≤ were set here for values at or beyond the usual limits of such assays
HLA-A*24:03 = assay: as above; conditions: source organism: Mammarenavirus lassaense
HLA-C*04:01 [3] = assay: as above
HLA-A*01:01 = assay: as above
HLA-A*02:01 [4] = assay: as above
HLA-A*26:01 = assay: as above
HLA-A*30:01 = assay: as above; conditions: source organism: Stutzerimonas stutzeri
HLA-A*31:01 = assay: as above
HLA-A*69:01 = assay: as above
HLA-B*07:02 = assay: as above; conditions: source organism: Stutzerimonas stutzeri
HLA-B*08:01 = assay: as above
HLA-B*15:01 [5] = assay: as above; conditions: source organism: Stutzerimonas stutzeri
HLA-B*27:05 [6] = assay: as above
HLA-B*40:01 [7] = assay: as above
HLA-B*58:01 = assay: as above
HLA-B*73:01 = assay: IEDB peptide-MHC binding, purified MHC/competitive/fluorescence; filed as Kd, often an IC50 or EC50 that approximates it; ≥ and ≤ were set here for values at or beyond the usual limits of such assays
HLA-B*35:01 = assay: IEDB peptide-MHC binding, cellular MHC/competitive/fluorescence; ≥ and ≤ were set here for values at or beyond the usual limits of such assays; conditions: source organism: Mycobacterium tuberculosis H37Rv
HLA-C*05:01 = assay: IEDB peptide-MHC binding, purified MHC/direct/fluorescence; filed as Kd, often an IC50 or EC50 that approximates it; ≥ and ≤ were set here for values at or beyond the usual limits of such assays; conditions: source organism: Shewanella sp. W3-18-1
HLA-A*32:07 = assay: IEDB peptide-MHC binding, purified MHC/competitive/fluorescence; filed as Kd, often an IC50 or EC50 that approximates it; ≥ and ≤ were set here for values at or beyond the usual limits of such assays; conditions: source organism: Shewanella sp. W3-18-1
HLA-A*32:15 = assay: as above; conditions: source organism: Shewanella sp. W3-18-1
HLA-C*07:02 = assay: IEDB peptide-MHC binding, purified MHC/direct/fluorescence; filed as Kd, often an IC50 or EC50 that approximates it; ≥ and ≤ were set here for values at or beyond the usual limits of such assays; conditions: source organism: Campylobacter jejuni
HLA-A*24:02 = assay: IEDB peptide-MHC binding, purified MHC/competitive/fluorescence; filed as Kd, often an IC50 or EC50 that approximates it; ≥ and ≤ were set here for values at or beyond the usual limits of such assays; conditions: source organism: Campylobacter jejuni
HLA-A*02:01 [8] = assay: IEDB peptide-MHC binding, cellular MHC/competitive/fluorescence; ≥ and ≤ were set here for values at or beyond the usual limits of such assays; conditions: source organism: Mycobacterium tuberculosis
HLA-A*03:01 = assay: IEDB peptide-MHC binding, purified MHC/direct/fluorescence; filed as Kd, often an IC50 or EC50 that approximates it; ≥ and ≤ were set here for values at or beyond the usual limits of such assays; conditions: source organism: Mycobacterium tuberculosis
HLA-A*11:01 = assay: as above; conditions: source organism: Mycobacterium tuberculosis
HLA-B*08:02 = assay: as above; conditions: source organism: Mycobacterium tuberculosis str. Haarlem
HLA-B*15:09 = assay: as above; conditions: source organism: Mycobacterium tuberculosis str. Haarlem
HLA-B*15:17 = assay: as above; conditions: source organism: Mycobacterium tuberculosis
HLA-B*18:01 = assay: as above; conditions: source organism: Mycobacterium tuberculosis
HLA-B*38:01 = assay: as above; conditions: source organism: Mycobacterium tuberculosis str. Haarlem
HLA-B*39:01 = assay: as above; conditions: source organism: Mycobacterium tuberculosis str. Haarlem
HLA-B*46:01 = assay: as above; conditions: source organism: Mycobacterium tuberculosis
HLA-B*48:01 = assay: as above; conditions: source organism: Mycobacterium tuberculosis
HLA-B*51:01 = assay: as above; conditions: source organism: Mycobacterium tuberculosis
HLA-B*57:01 = assay: as above; conditions: source organism: Mycobacterium tuberculosis
HLA-B*15:01 [9] = assay: IEDB peptide-MHC binding, purified MHC/competitive/fluorescence; filed as Kd, often an IC50 or EC50 that approximates it; ≥ and ≤ were set here for values at or beyond the usual limits of such assays; conditions: source organism: Mycobacterium tuberculosis variant bovis BCG str. Pasteur 1173P2
HLA-B*27:05 [10] = assay: as above; conditions: source organism: Influenza A virus (A/Waikato/7/2000(H3N2))
[11] = source organism: Salmonella enterica subsp. enterica serovar Typhi
[12] = source organism: Stutzerimonas stutzeri
[13] = source organism: Salmonella enterica subsp. enterica serovar Typhimurium
[14] = source organism: Shewanella sp. W3-18-1
[15] = source organism: Mycobacterium tuberculosis
[16] = source organism: Mycobacterium tuberculosis str. Haarlem
[17] = source organism: Mycobacterium tuberculosis variant bovis BCG str. Pasteur 1173P2

AEFVFSCGI
Kd (HLA-B*15:42; [11]): ≥ 5 µM | Kd (HLA-B*40:01 [1]): 0.0084 µM | Kd (HLA-B*45:06; [11]): ≥ 5 µM | Kd (HLA-B*83:01; [11]): ≥ 5 µM | Kd (HLA-C*04:01 [2]): ≥ 5 µM

CRRLNTKYL
Kd (HLA-C*06:02; source organism: Aquifex aeolicus VF5): 0.173 µM

FYADPKRYF
Kd (HLA-A*24:03): 0.008 µM | Kd (HLA-C*04:01 [3]; source organism: Mammarenavirus lassaense): ≥ 20 µM

GRGQILLGK
Kd (HLA-A*01:01; [12]): ≥ 20 µM | Kd (HLA-A*02:01 [4]; [12]): 5.95 µM | Kd (HLA-A*26:01; [12]): ≥ 20 µM | Kd (HLA-A*30:01): ≥ 5 µM | Kd (HLA-A*31:01; [12]): ≥ 20 µM | Kd (HLA-A*69:01; [12]): ≥ 20 µM | Kd (HLA-B*07:02): ≥ 20 µM | Kd (HLA-B*08:01; [12]): ≥ 20 µM | Kd (HLA-B*15:01 [5]): ≥ 20 µM | Kd (HLA-B*27:05 [6]; [12]): 0.321 µM | Kd (HLA-B*40:01 [7]; [12]): ≥ 20 µM | Kd (HLA-B*58:01; [12]): ≥ 20 µM | Kd (HLA-B*73:01; [12]): ≥ 20 µM

IPAEFLENF
IC50 (HLA-B*35:01): 1 µM

IPAKFLEGL
IC50 (HLA-B*35:01): 7.1 µM

LMMSSPPPI
Kd (HLA-A*02:01 [4]; [13]): 0.0123 µM | Kd (HLA-A*69:01; [13]): 0.174 µM | Kd (HLA-C*05:01): ≥ 20 µM | Kd (HLA-A*32:07): 0.0508 µM | Kd (HLA-A*32:15): 0.137 µM | Kd (HLA-B*15:42; [14]): ≥ 5 µM | Kd (HLA-B*45:06; [14]): ≥ 5 µM | Kd (HLA-B*83:01; [14]): ≥ 5 µM

LYSRSFWFF
Kd (HLA-C*04:01 [3]; source organism: Campylobacter jejuni): ≥ 20 µM | Kd (HLA-C*07:02): 0.206 µM | Kd (HLA-A*24:02): ≤ 0.0001 µM

NLLVTGFDT
IC50 (HLA-A*02:01 [8]): 2.4 µM

RPRRASSPF
Kd (HLA-A*01:01; [15]): ≥ 20 µM | Kd (HLA-A*02:01 [4]; [15]): ≥ 20 µM | Kd (HLA-A*03:01): ≥ 20 µM | Kd (HLA-A*11:01): ≥ 20 µM | Kd (HLA-A*26:01; [16]): ≥ 20 µM | Kd (HLA-A*31:01; [15]): ≥ 20 µM | Kd (HLA-A*69:01; [15]): ≥ 20 µM | Kd (HLA-B*08:01; [16]): 0.036 µM | Kd (HLA-B*08:02): 9.48 µM | Kd (HLA-B*15:09): ≥ 20 µM | Kd (HLA-B*15:17): 0.273 µM | Kd (HLA-B*18:01): 9.95 µM | Kd (HLA-B*27:05 [6]; [15]): ≥ 20 µM | Kd (HLA-B*38:01): ≥ 20 µM | Kd (HLA-B*39:01): ≥ 20 µM | Kd (HLA-B*40:01 [7]; [15]): ≥ 20 µM | Kd (HLA-B*46:01): ≥ 20 µM | Kd (HLA-B*48:01): ≥ 20 µM | Kd (HLA-B*51:01): ≥ 20 µM | Kd (HLA-B*57:01): ≥ 20 µM | Kd (HLA-B*58:01; [15]): ≥ 20 µM | Kd (HLA-B*15:01 [9]): 0.288 µM | Kd (HLA-B*15:42; [17]): ≥ 5 µM | Kd (HLA-B*45:06; [17]): ≥ 5 µM | Kd (HLA-B*83:01; [17]): 0.109 µM

SRFLRRPAQ
Kd (HLA-B*73:01; source organism: Burkholderia vietnamiensis G4): 0.67 µM

TIPEALAAV
IC50 (HLA-A*02:01 [8]): 2.8 µM

YRTLLMNEL
Kd (HLA-C*06:02; source organism: Influenza A virus (A/Waikato/7/2000(H3N2))): 0.009 µM | Kd (HLA-B*27:05 [10]): 0.0539 µM
